Measured values from article PMC9481740 (The Journal of Cell Biology, 2022).
Changes are numbered by the printed parent chain.

T1: ^mChSpindly^CC2* (R295E-K297E) (human, UniProt Q96EA4 1-605, R295E | K297E)
T1 construct: source: E. coli BL21 CodonPlus, purified (HisTrap, Resource Q, Superdex 200); not shown: mCherry, N-terminal, kept
T1 sequence (looked up): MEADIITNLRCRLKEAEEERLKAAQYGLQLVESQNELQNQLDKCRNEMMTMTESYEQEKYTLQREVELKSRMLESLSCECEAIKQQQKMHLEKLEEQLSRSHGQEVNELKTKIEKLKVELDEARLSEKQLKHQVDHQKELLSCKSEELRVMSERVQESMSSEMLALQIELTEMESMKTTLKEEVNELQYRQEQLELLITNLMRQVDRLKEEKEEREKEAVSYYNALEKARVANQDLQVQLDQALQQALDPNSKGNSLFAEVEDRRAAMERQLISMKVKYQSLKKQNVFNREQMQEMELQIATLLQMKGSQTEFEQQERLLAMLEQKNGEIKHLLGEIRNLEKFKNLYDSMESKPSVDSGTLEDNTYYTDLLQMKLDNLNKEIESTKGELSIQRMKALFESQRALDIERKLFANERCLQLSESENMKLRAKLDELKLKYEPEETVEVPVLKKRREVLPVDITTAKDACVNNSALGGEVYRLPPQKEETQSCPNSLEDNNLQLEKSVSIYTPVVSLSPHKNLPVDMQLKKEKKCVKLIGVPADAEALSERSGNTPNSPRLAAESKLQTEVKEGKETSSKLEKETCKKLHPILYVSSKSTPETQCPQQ

T2: mCherry-tagged full-length Spindly (^mChSpindly^FL) (human, UniProt Q96EA4 1-605)
T2 construct: also called ^mChSpindly^WT; Spindly^WT; source: E. coli BL21 CodonPlus, purified (HisTrap, Resource Q, Superdex 200); not shown: mCherry, N-terminal, kept
T2 sequence (looked up): T1 sequence (looked up) with E295R, E297K

T3: ^mChSpindly^ΔRV (human, UniProt Q96EA4 1-605, ΔRV (residues R154–V155))
T3 construct: also called ^mChSpindly^∆RV; source: E. coli BL21 CodonPlus, purified (HisTrap, Resource Q, Superdex 200); not shown: mCherry, N-terminal, kept
T3 sequence (looked up): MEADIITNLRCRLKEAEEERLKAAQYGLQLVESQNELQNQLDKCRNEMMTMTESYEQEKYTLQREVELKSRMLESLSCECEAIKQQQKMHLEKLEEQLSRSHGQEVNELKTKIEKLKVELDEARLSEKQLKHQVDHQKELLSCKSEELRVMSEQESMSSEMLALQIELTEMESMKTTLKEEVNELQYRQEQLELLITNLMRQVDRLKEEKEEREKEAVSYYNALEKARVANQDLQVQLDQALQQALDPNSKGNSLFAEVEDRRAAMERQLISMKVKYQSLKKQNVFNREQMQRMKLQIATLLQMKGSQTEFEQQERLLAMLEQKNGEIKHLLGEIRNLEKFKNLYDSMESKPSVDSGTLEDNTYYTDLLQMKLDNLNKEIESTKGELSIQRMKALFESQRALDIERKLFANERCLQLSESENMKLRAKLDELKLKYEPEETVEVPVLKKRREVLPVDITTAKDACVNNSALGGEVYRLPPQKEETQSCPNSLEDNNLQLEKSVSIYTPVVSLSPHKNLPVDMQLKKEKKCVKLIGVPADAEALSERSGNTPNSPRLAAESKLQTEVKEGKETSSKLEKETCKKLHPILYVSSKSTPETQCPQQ

B1: GST-LIC2 (natural protein, human, UniProt O43237 1-492, looked up)
chain: MAPVGVEKKLLLGPNGPAVAAAGDLTSEEEEGQSLWSSILSEVSTRARSKLPSGKNILVFGEDGSGKTTLMTKLQGAEHGKKGRGLEYLYLSVHDEDRDDHTRCNVWILDGDLYHKGLLKFAVSAESLPETLVIFVADMSRPWTVMESLQKWASVLREHIDKMKIPPEKMRELERKFVKDFQDYMEPEEGCQGSPQRRGPLTSGSDEENVALPLGDNVLTHNLGIPVLVVCTKCDAVSVLEKEHDYRDEHLDFIQSHLRRFCLQYGAALIYTSVKEEKNLDLLYKYIVHKTYGFHFTTPALVVEKDAVFIPAGWDNEKKIAILHENFTTVKPEDAYEDFIVKPPVRKLVHDKELAAEDEQVFLMKQQSLLAKQPATPTRASESPARGPSGSPRTQGRGGPASVPSSSPGTSVKKPDPNIKNNAASEGVLASFFNSLLSKKTGSPGSPGAGGVQSTAKKSGQKTVLSNVQEELDRMTRKPDSMVTNSSTENEA
notes: Dynein light intermediate chain 2 (LIC2), human; GST is TEV-cleavable but was used as the handle on glutathione beads; also called GST-tagged LIC2; source: TnAO38 insect cells (baculovirus), purified (GSTrap, Superdex 200); not shown: GST, N-terminal, kept
B2: pre-farnesylated ^mChSpindly^CC2* (natural protein, human, UniProt Q96EA4 1-605, looked up)
chain: T1 sequence (looked up)
modifications: farnesylated (residue not given)
notes: source: E. coli BL21 CodonPlus, purified; farnesylated in vitro with farnesyltransferase; not shown: mCherry, N-terminal, kept

How the values were obtained:
Details in all cases: both partners purified
[1] = target: T1, ^mChSpindly^CC2* (R295E-K297E); assay: pull-down; GST or GST-LIC2 bait 4 µM on glutathione beads, mCh-Spindly preys 8 µM, 4°C 1 h, Spindly buffer; eluted with glutathione; mCherry fluorescence of the gel band quantified against Spindly FL
[2] = target: T2, mCherry-tagged full-length Spindly …; assay: as above
^mChSpindly^ΔRV = target: T3, ^mChSpindly^ΔRV; assay: as above
[3] = target: T4, ROD–Zwilch–ZW10 (RZZ) complex (UniProt P50748 1-2209; Q9H900 1-591; O43264 1-779); assay: SEC; Superose 6 5/150; RZZ 2 µM, pre-farnesylated mCh-Spindly construct 6 µM
T4 construct: ROD; Zwilch; ZW10; also called mCherry-RZZ; copies: + +
T4 sequence (P50748 whole entry, chain 1 of 3): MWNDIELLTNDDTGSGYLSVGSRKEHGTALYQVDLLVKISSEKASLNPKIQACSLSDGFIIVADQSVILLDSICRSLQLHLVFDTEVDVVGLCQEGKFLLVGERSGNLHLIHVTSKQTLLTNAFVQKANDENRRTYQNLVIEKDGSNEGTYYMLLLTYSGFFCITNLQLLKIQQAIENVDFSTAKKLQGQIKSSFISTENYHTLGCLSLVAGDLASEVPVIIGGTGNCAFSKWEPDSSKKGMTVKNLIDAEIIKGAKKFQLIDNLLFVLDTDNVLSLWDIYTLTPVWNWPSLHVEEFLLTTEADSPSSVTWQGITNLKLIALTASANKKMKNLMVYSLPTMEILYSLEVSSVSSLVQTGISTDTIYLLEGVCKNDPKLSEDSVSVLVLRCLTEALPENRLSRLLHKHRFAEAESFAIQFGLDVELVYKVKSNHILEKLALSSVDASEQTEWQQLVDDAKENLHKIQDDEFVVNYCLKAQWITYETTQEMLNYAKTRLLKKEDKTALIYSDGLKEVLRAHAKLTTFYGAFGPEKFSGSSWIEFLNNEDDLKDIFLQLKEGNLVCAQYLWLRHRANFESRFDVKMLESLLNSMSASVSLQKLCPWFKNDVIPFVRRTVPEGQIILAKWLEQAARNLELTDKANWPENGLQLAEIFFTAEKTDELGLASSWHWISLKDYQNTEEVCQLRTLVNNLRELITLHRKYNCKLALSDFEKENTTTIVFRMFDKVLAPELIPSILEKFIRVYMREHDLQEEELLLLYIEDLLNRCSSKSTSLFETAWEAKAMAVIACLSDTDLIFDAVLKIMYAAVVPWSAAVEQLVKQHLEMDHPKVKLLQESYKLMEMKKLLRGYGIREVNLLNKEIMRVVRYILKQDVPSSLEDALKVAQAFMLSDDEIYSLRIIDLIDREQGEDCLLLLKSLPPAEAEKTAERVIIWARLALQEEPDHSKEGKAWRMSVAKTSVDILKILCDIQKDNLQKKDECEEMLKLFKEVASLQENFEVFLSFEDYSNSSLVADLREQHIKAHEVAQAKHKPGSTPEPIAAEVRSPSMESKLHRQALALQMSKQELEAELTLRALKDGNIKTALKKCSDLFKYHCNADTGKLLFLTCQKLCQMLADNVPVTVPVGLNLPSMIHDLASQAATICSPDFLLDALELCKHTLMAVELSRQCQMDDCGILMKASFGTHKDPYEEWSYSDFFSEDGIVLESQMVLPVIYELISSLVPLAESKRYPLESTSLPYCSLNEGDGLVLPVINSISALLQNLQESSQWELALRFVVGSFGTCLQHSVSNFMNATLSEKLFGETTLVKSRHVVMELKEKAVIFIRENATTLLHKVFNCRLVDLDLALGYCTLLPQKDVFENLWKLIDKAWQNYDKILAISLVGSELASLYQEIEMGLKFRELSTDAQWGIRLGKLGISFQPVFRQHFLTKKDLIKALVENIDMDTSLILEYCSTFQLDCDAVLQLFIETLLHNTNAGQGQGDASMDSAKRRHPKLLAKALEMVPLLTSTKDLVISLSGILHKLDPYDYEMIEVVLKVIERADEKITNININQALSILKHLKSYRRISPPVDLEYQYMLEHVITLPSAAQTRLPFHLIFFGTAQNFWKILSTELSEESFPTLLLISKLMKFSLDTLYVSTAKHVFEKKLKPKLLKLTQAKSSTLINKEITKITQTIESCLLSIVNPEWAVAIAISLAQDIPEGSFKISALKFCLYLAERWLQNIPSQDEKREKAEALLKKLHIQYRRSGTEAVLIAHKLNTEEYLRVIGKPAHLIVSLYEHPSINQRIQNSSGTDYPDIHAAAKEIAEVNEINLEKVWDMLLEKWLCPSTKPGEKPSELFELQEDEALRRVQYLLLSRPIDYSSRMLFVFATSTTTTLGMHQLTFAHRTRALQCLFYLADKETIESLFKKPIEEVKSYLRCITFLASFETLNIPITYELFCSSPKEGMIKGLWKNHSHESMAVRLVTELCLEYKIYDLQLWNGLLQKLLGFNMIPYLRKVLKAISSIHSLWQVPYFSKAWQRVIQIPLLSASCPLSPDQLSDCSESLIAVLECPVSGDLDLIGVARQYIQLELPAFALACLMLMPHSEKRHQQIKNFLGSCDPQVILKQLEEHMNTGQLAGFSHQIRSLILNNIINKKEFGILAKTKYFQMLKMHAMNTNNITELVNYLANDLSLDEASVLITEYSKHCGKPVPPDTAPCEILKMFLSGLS
T4 sequence (Q9H900 whole entry, chain 2 of 3): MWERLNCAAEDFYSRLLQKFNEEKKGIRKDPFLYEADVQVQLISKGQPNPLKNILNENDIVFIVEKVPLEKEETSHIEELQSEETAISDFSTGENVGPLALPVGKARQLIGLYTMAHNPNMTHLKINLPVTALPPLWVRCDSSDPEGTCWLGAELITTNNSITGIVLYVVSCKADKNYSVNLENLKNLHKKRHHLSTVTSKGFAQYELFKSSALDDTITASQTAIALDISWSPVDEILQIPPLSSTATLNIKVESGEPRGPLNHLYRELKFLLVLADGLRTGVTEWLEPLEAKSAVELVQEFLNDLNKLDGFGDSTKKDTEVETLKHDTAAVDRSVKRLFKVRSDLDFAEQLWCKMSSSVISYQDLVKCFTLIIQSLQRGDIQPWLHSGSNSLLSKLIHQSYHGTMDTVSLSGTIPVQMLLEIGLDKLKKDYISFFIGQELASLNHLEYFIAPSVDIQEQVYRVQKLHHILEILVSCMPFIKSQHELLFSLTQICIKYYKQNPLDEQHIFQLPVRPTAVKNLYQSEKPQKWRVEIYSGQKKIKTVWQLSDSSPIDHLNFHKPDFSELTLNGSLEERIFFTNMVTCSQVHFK
T4 sequence (O43264 whole entry, chain 3 of 3): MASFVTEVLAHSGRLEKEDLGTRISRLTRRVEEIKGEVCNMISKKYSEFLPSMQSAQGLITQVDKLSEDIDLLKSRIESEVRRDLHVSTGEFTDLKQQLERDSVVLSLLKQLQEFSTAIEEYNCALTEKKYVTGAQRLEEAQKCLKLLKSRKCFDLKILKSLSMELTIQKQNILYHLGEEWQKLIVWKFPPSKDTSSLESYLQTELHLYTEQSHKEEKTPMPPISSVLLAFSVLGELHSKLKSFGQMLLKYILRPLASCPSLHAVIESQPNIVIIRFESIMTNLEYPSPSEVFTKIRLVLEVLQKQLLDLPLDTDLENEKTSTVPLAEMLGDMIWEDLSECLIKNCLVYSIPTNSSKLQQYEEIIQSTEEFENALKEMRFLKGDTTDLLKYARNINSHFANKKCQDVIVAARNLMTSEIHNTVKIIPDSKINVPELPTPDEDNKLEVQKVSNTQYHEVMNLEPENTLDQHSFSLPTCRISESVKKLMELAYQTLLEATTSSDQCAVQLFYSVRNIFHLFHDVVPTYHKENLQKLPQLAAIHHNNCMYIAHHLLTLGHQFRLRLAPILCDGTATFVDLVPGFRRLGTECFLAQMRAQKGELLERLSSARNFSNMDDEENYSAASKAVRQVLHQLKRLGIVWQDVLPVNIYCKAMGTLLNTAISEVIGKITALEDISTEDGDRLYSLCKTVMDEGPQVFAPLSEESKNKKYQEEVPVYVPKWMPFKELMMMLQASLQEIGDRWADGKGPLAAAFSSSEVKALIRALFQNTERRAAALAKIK

Binder	binding result [1]	binding result [2]	binding result (^mChSpindly^ΔRV)	binding result [3]
B1	binds	binds	binds	–
B2	–	–	–	binds
